Laboratory results published in patent publication US20230399394A1 (SUNSHINE GUOJIAN PHARMACEUTICAL SHANGHAI, published 2023).

Assays:
[1] = biological target: T1, IL-33 protein without any mutation (WT) (human, UniProt O95760 112-270); experiment: ELISA as Example 9; row WT-4, the reference itself
T1 construct: Control of the alanine scan (four runs WT-1 to WT-4); also called WT-1; WT-2
T1 sequence: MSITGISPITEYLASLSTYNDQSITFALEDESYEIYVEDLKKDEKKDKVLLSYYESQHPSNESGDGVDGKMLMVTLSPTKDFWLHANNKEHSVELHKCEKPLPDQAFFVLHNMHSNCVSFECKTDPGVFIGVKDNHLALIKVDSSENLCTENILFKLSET
Procedure: (§1) SA protein was diluted to 2 μg/mL to coat ELISA plate at 100 μL/well overnight at 4° C. The plate was washed with PBST (PBS containing 0.05% Tween20) for 3 times, and blocked with 2% BSA prepared in PBS at 200 μL/well, at room temperature for 2 h. After the plate was washed twice with PBST, IL-33-his-biotin protein was diluted to 1 μg/mL with 1% BSA prepared in PBST, and was added to ELISA plate at 100 μL/well. The plate was incubated at room temperature for 1 h, and each monoclonal antibody was diluted with 1% BSA prepared in PBST in a 3-fold gradient. The highest concentration of antibody was 10 μg/mL, and the antibody was diluted for 12 gradients. Each diluted monoclonal antibody was added to ELISA wells with 100 μL/well, and the plate was incubated at room temperature for 1 h. Each sample was added to duplicate wells in parallel. The plate was washed with PBST for 3 times, and HRP-anti human IgG Fc secondary antibody prepared with PBST was diluted at an appropriate ratio, and was added to ELISA wells at 100 μL/well. […] Each reaction solution was shaken uniformly and OD450 nm was read on a microplate reader. The data was analyzed and EC₅₀ was calculated.
(§2) Subsequently, according to the experimental method of Example 9, the affinity of the above mutant proteins to 874F7-Hu1 was determined, and IL-33 proteins (WT-1, WT-2, WT-3, and WT-4) without any mutation were set as controls.

[2] = biological target: T1, IL-33 protein without any mutation (WT); experiment: ELISA as Example 9; row WT-2, the reference itself
Procedure: as §1, §2

[3] = biological target: T1, IL-33 protein without any mutation (WT); experiment: ELISA as Example 9; row WT-3, the reference itself
Procedure: as §1, §2

[4] = biological target: T2, IL-33 mutant protein P59A (human, UniProt O95760 112-270); experiment: ELISA as Example 9; row P59A
T2 construct: Prokaryotic expression
T2 chain: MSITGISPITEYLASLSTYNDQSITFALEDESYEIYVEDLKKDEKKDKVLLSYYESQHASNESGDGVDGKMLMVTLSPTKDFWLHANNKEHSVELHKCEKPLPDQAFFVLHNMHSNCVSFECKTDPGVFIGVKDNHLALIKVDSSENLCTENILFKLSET
Procedure: as §1, §2

[5] = biological target: T3, IL-33 mutant protein H58A (human, UniProt O95760 112-270); experiment: ELISA as Example 9; row H58A
T3 construct: Prokaryotic expression
T3 chain: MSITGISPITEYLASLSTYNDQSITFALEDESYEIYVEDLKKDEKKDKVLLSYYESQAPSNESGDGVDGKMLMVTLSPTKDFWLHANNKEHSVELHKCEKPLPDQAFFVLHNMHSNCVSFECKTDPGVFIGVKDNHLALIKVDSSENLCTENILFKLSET
Procedure: as §1, §2

[6] = biological target: T4, IL-33 mutant protein E55A (human, UniProt O95760 112-270); experiment: ELISA as Example 9; row E55A
T4 construct: Prokaryotic expression
T4 chain: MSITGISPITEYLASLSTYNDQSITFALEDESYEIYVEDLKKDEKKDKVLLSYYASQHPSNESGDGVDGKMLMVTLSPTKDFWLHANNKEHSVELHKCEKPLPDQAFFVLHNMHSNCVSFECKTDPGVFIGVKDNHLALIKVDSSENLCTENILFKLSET
Procedure: as §1, §2

[7] = biological target: T5, IL-33 mutant protein S63A (human, UniProt O95760 112-270); experiment: ELISA as Example 9; row S63A against WT-3
T5 construct: Prokaryotic expression
T5 chain: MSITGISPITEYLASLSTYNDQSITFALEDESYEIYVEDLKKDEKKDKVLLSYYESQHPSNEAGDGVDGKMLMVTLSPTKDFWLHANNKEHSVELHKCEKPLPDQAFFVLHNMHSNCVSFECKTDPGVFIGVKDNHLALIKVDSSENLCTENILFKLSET
Procedure: as §1, §2

Cynomolgus IL-33-his = biological target: T6, Cynomolgus IL-33-his (cynomolgus, UniProt A0A2K5W3I1 112-269, biotinylated in the ELISA of Example 6); experiment: SPR Biacore 8K as Example 14, antibody captured, antigen as analyte
T6 construct: Bought protein; also called cynomolgus IL-33 protein; Cynomolgus monkeys IL-33
T6 sequence: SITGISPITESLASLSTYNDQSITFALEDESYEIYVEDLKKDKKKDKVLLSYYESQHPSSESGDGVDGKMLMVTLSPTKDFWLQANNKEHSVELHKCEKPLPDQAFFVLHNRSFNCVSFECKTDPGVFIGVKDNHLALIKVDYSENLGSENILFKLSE
Procedure: A chip with covalently coupled Protein A/G (purchased from GE Healthcare, catalog number BR-1005-30) was used to capture each antibody to be tested, and the relevant operating parameters were as follows: The antibody concentration was […], the contact time was 75 s, the flow rate was […], and the regeneration contact time was 30 s. The IL-33-his antigen was diluted with HBS-EP pH7.4 buffer solution (purchased from GE Healthcare, catalog number BR-1006-69). The maximum concentration was 50 nM, and diluted to 0.39 nM by two-fold dilution. Duplicate wells and 0 concentration point well were set, and 6M guanidine hydrochloride solution was used as the regeneration buffer. The sample was injected on Biacore 8K according to the following parameters, the binding time was 180 s, the dissociation time was 900 s, the flow rate was 30 μL/min, and the regeneration contact time was 30 s. After running, Biacore 8K Evaluation Software was used to analyze the data according to the “1:1 binding kinetics model”, and the binding kinetics parameters of each antibody to IL-33 were obtained.
The experimental methods were referred to Example 14, in which the antigens cynomolgus IL-33 protein (purchased from Sino catalog number 90912-CNAE) and mouse IL-33 protein (purchased from R&D, 3626-ML-010/CF) were used, and human IL-33 protein was used as the control. Both 864F3-Hu4 and 874F7-Hu1 cross-react with cynomolgus IL-33 protein, and are consistent with the characteristics of each antibody binding to human IL-33 protein.

Affinity decline ratio [1]: 1 fold
Affinity decline ratio [2]: 1 fold
Affinity decline ratio [3]: 1 fold
EC50 [4]: 0.12 nM
EC50 [5]: 0.43 nM
EC50 [6]: 0.33 nM
Affinity decline ratio [7]: 0.9 fold
Kd (Cynomolgus IL-33-his): 1.27 nM
koff (Cynomolgus IL-33-his): 0.000349 s⁻¹
kon (Cynomolgus IL-33-his): 273000 M⁻¹ s⁻¹
B1: 874F7-Hu1 (antibody, human IgG4 S228P, kappa)
heavy: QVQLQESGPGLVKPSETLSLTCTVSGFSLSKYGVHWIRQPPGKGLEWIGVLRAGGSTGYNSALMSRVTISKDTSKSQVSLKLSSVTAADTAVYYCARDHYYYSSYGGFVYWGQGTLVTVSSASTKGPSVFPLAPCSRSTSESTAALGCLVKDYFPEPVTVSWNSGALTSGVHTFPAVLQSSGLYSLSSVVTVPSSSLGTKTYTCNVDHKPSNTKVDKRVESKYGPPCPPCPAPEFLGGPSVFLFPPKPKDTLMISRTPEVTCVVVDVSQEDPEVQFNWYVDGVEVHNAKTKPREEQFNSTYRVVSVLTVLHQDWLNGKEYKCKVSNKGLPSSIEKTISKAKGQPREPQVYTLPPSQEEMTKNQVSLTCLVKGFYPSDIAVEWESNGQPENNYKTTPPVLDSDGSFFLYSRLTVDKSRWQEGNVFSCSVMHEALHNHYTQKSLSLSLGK
light: DIQMTQSPSSVSASVGDRVTITCLASQTIGAWLAWYQQKPGKSPKLLIYAATRLADGVPSRFSGSGSGTDFTLTISSLQPEDFATYYCQQLDSSPYTFGQGTKVEIKRTVAAPSVFIFPPSDEQLKSGTASVVCLLNNFYPREAKVQWKVDNALQSGNSQESVTEQDSKDSTYSLSSTLTLSKADYEKHKVYACEVTHQGLSSPVTKSFNRGEC
notes: also called 874F7-Hul; humanized antibody 874F7-Hu1
